Experimental data taken from patent US20210246218A1.

Biological target: human FcγRIIB-Ile232 on CHO-K1 cells (human) (UniProt P31994)
Assay: flow cytometry on CHO-huFcγRIIB cells, anti-human Fc F(ab')2

human FcγRIIB-Ile232 on CHO-K1 cells (human), sequence (P31994 43-310): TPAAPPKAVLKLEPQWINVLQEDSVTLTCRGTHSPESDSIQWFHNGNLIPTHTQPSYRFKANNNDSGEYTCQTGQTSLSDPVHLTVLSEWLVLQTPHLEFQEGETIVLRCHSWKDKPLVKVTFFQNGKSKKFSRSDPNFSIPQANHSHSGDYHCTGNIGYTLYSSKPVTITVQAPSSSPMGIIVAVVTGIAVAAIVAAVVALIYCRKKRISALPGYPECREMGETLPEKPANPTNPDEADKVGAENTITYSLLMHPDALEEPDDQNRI

EC50 (read off the curve): 5 µg/mL
Substance: Avastin (antibody)
